These results are taken from the supplement of paper PMC12042874.

± gives the uncertainty stated by the source.

A short description of this data set: amyloid nucleation score (Sup35N fusion, yeast selection) (log enrichment); library NNK3; higher = more nucleation; inactive = no reads after selection. Summed up:
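Growth for 7 days at 30°C on medium lacking adenine and uracil followed a 24-hour induction with 100 μM copper sulfate of psi-negative yeast expressing peptides of 20 random codons fused to Sup35N. Input and output plasmid inserts were sequenced with Illumina, and sequences with under 100 input reads were excluded. Nucleation score is the DiMSum log enrichment of output over input reads, centred on the mode score of non-aggregating sequences.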
Take GLMRDCTTAMIGENDAFWSD: the amyloid nucleation score result was “inactive”.
Under GLPSFRHSF stands “inactive”; under GLRFPMRWDCGVRVNYRKSR, “inactive”.
Under GLRLFYAHRYAC stands “inactive”; under GLRNHCPSFLLWASTARGTL, -0.976 ± 2.5; under GLSRCSPWKASSDDRRRLSD, “inactive”.
In the case of GLTTLCSVPKQYVKYFVVTH, the amyloid nucleation score entry was “inactive”.
The result for GLVVKSKYMRRFPGTR reads “inactive”.
Under GMCVGDLEAQTSEGTSNESW stands “inactive”; under GMFCNGINTNYVPVYYYRSV, 1.27 ± 0.17.
For GMMICMISWWVWNFACVDIR, the amyloid nucleation score entry was “inactive”.
Under GMNKLL stands “inactive”; under GMRFRLMEKFHRLFYYSNMT, “inactive”.
The result for GMVNDYVVTVNFPCFWLG reads 2.19 ± 0.079; that for GNNPLVVKNLNRKCL, -0.357 ± 0.51.
On to GNQAYTVTGGSETVCSDNGC, for which the amyloid nucleation score result was “inactive”.
Under GNRLALVYLGRILPL stands “inactive”; under GNTVEGKLE, “inactive”.
Consider GNVDVAHCDWCKGSTCMLN, for which the amyloid nucleation score worked out at 2.64 ± 0.084.
Under GPHNFGEMSGFVDGTRRSGV stands “inactive”; under GPNLLWDRGGPVNSCASKEA, “inactive”.
Under GQDWIAV stands “inactive”.
The result for GQKCHLGCAFGCDEYTWAKG reads “inactive”; that for GQSVMQSAMGSISKFE, “inactive”; that for GQYPEYYWYLGTEFFTVVLF, “inactive”.
In the case of GRIGTVGWGISLHYVYTDRA, the amyloid nucleation score was found to be 0.547 ± 0.2.
In the case of GRIVMHVICNIFNCNYFGNS, the amyloid nucleation score is 2.94 ± 0.072.
Under GRKKVVTWQLLARQP stands “inactive”.
Under GRLALSTRQHLV stands “inactive”; under GRLLMFASDLLNSPRMCWTE, -0.687 ± 1.8; under GRLNVLRRRPVGRTKRCSKV, “inactive”.
The result for GRWLV reads “inactive”; that for GRYFSRNYAMCLLLFTTGEV, “inactive”; that for GRYLSANLVVKSGCR, “inactive”.
Take GSALVLCELGSVAKSLSGNL: the amyloid nucleation score result was “inactive”.
Under GSATSFAFFIVFLSD stands 1.51 ± 0.096; under GSCKVADAPCSHARR, -0.331 ± 1.3.
The result for GSDVFTFRWGNMLRTCTTGR reads “inactive”; that for GSFTASFDGFQGSIMVERGG, “inactive”.
Regarding GSGLPLTALRSTYVAAPHSE, the amyloid nucleation score result is “inactive”.
Consider GSGTGNALLQLGLTSIFTFS, for which the amyloid nucleation score result is “inactive”.
Regarding GSICLRQGPSVMVLRMWLCD, the amyloid nucleation score entry was “inactive”.
The result for GSISLASWVVYSIAIR reads “inactive”.
Under GSKDYQPSYIPWYNFACFKG stands -0.594 ± 0.96; under GSMMLWCFIDSSWDLSLRK, 0.884 ± 0.19; under GSRCCNSAFNKECLSITEHS, -0.485 ± 0.8.
Under GSRIGGVL stands “inactive”.
Turning to GSRVN, the amyloid nucleation score is -0.352 ± 0.36.
Under GSSAPKWVWNWFVPYGKRQG stands 1.3 ± 0.089.
The result for GSSRCNGRLWSAG reads “inactive”; that for GSSSSVYWFLDGCDTLKRHM, “inactive”.
As for GSSWCLTLWLKNSLATVQTQ, the amyloid nucleation score result was “inactive”.
The result for GSVGTNCSGFVAPELRSPRC reads “inactive”.
The result for GSYRWAVGGKDWGHWDRCLA reads “inactive”; that for GSYSRTLTYPHGENHENRKV, “inactive”; that for GTCKS, “inactive”.
Under GTFVFTYMWFNIYRQNDFRN stands “inactive”; under GTIRDSGSHYKVISF, “inactive”.
As to GTITPRYRYVIEVSSMKRYW, the amyloid nucleation score result was “inactive”.
Under GTIYMFENGSSVS stands “inactive”; under GTLCTETHGT, “inactive”.
The result for GTMYVGSGGYEKL reads “inactive”.
The result for GTQVYTGGRVYERLRVMSCV reads “inactive”.
In the case of GVFWLLNICQYGPRLRHMWS, the amyloid nucleation score entry was “inactive”.
Under GVGTYI stands “inactive”; under GVLREEL, “inactive”.
Under GVLVTANLYFWMEPSALPAM stands “inactive”; under GVNVWRYLCH, “inactive”; under GVRVS, “inactive”.
For the substance GVSYMNCTHWTL, the amyloid nucleation score entry was “inactive”.
Under GVTLFSVVQTFLVSTLCKIE stands “inactive”; under GVTQVIWVAYNILFLNNCWM, “inactive”; under GVVANFSLPLSAVFAWRSFR, 2.78 ± 0.055.
Under GVVYWVIRKTIEGSLQFASI stands “inactive”; under GWGIICFAKY, “inactive”; under GWKANWELCRVYVQWSGLNV, 0.422 ± 0.38.
Consider GWKFMREYSKRIGSSSPVVY, for which the amyloid nucleation score entry is “inactive”.
As for GWSFAWCTRVRVMGKVAVWW, the amyloid nucleation score result is “inactive”.
The result for GYAADMIFYQGHHMKISMFR reads 1.08 ± 0.15; that for GYGVCNNDKCVQDAPGQPVS, -0.357 ± 1.1.
The result for GYISMSNKHMGVYIHLA reads “inactive”; that for GYLLVVW, “inactive”; that for GYLSFIVFMGGRPSLSGNSI, 1.42 ± 0.14.
The result for GYQDSIGFSSR reads “inactive”.
GYRSCCCEKLRSRSCGSSWA: the amyloid nucleation score entry is “inactive”.
The result for GYSNFDCLSSLNISEYGPAA reads “inactive”; that for GYTDRLVLNRKGGQYGGFEN, “inactive”.
Under GYTMRG stands “inactive”; under GYVVQIMFYILVVHTTWSSA, -0.451 ± 0.98.
The result for GYYANGISRPVILLMFWRVR reads “inactive”; that for HAKADL, “inactive”; that for HCDCTFYSSLGFIGGTWDSC, “inactive”.
Take HDAVLI: the amyloid nucleation score entry was “inactive”.
Turning to HDCSYLGILKDMDS, the amyloid nucleation score result was “inactive”.
Take HDESQVVLCRYCCSDVRLTH: the amyloid nucleation score entry was “inactive”.
The result for HDKAVQEVGQGCGE reads 1.34 ± 0.11; that for HFCKRLENIVYLRIFIFYLN, “inactive”.
Under HFCSGSINMMNFLSKDYKMQ stands 2.39 ± 0.063.
Under HFEIVSVANKITYCLCQQML stands 2.28 ± 0.075; under HFFNPCQGHRNKVPRRAS, “inactive”; under HFGQCSVMMCDAWGMSDQGP, “inactive”.
For the substance HFLLNWSRQI, the amyloid nucleation score result is “inactive”.
Under HFMLNIWKVDNNMLWVLICP stands “inactive”; under HFNPPYRMFPHYVLLMNMYL, “inactive”.
The result for HFVLWHLKGSQFGGSVAVIQ reads “inactive”.
The result for HGQFMWLMYYMNILSFLLGF reads “inactive”; that for HGSYSDGVEVNEFRLGTRVG, “inactive”.
Consider HGVWSCRWWLNNRMF, for which the amyloid nucleation score entry was “inactive”.
The result for HHLSTRINCIDRVRSPNLRL reads -0.708 ± 1.4.
Turning to HHLTFTGGWYPDWHSLFMGG, the amyloid nucleation score result was “inactive”.
The result for HHRLSGEMSSWVATATCWVG reads “inactive”; that for HIFDNSYIFLDLLLARKY, 1.87 ± 0.061; that for HIINCFIFLNVTDYTIVFLL, 2.21 ± 0.074.
The result for HILHLRLDYFLGA reads 0.401 ± 0.3; that for HINARRLYFTYV, “inactive”; that for HIVKKFPSPMRITWCGSPFQ, “inactive”.
The result for HIVMVLRSLAYVSSSTHGRR reads “inactive”.
As for HIWVCLEVGVGKSILVLLLF, the amyloid nucleation score result was “inactive”.
The result for HIYRYLMS reads “inactive”; that for HKLLGVTYYAV, “inactive”.
The result for HKPCRCKTMLWDLAIVGSLE reads “inactive”; that for HKSVLFNTRSSCRTSVLIVR, “inactive”.
Take HLACLRV: the amyloid nucleation score result was “inactive”.
The result for HLAHLSRSLSVKSSSVMKGH reads “inactive”.
HLFGDFDKWVDKLWRYNRVD returned an amyloid nucleation score of 0.985 ± 0.21.
The result for HLFLKHMLLTYCKPCGW reads “inactive”.
Under HLNLTHNWNVYGKDLNGQFF stands 2.13 ± 0.072; under HLRDMQRSQNLVG, “inactive”; under HLSSNVLNYVLNFHWFCNFG, 0.836 ± 0.16.
In the case of HLVADWQCHSDGFKSWLGNW, the amyloid nucleation score result is “inactive”.
The result for HLVMGWLTKPSSIFGLEDKR reads 1.13 ± 0.11.
